From article PMC12643061, “Structural dynamics of the plant hormone receptor ETR1 in a native‐like membrane environment” (Febs Letters, 2025)

Target: the molecule itself
Test: SEC; ETR1 in DMPC/MSP1E3D1 nanodiscs; Superose 6 Increase 10/300 GL, 50 mM Tris-HCl pH 8.0, 200 mM NaCl, 0.3 mL/min; column calibrated with protein standards; elution volume 16.77 mL, ~450 kDa

B1: ethylene receptor 1 (ETR1) from Arabidopsis thaliana, full-length, with N-terminal 10xHis-tag (receptor, UniProt P49333 1-738, looked up)
chain: MEVCNCIEPQWPADELLMKYQYISDFFIAIAYFSIPLELIYFVKKSAVFPYRWVLVQFGAFIVLCGATHLINLWTFTTHSRTVALVMTTAKVLTAVVSCATALMLVHIIPDLLSVKTRELFLKNKAAELDREMGLIRTQEETGRHVRMLTHEIRSTLDRHTILKTTLVELGRTLALEECALWMPTRTGLELQLSYTLRHQHPVEYTVPIQLPVINQVFGTSRAVKISPNSPVARLRPVSGKYMLGEVVAVRVPLLHLSNFQINDWPELSTKRYALMVLMLPSDSARQWHVHELELVEVVADQVAVALSHAAILEESMRARDLLMEQNVALDLARREAETAIRARNDFLAVMNHEMRTPMHAIIALSSLLQETELTPEQRLMVETILKSSNLLATLMNDVLDLSRLEDGSLQLELGTFNLHTLFREVLNLIKPIAVVKKLPITLNLAPDLPEFVVGDEKRLMQIILNIVGNAVKFSKQGSISVTALVTKSDTRAADFFVVPTGSHFYLRVKVKDSGAGINPQDIPKIFTKFAQTQSLATRSSGGSGLGLAISKRFVNLMEGNIWIESDGLGKGCTAIFDVKLGISERSNESKQSGIPKVPAIPRHSNFTGLKVLVMDENGVSRMVTKGLLVHLGCEVTTVSSNEECLRVVSHEHKVVFMDVCMPGVENYQIALRIHEKFTKQRHQRPLLVALSGNTDKSTKEKCMSFGLDGVLLKPVSLDNIRDVLSDLLEPRVLYEGM
notes: Ethylene receptor 1 (ETR1), Arabidopsis thaliana, full length, 738 residues, 82.5 kDa per monomer; Membrane protein, measured embedded in DMPC nanodiscs held by the scaffold protein MSP1E3D1 (His-tag cleaved by TEV); No cleavage of the ETR1 His-tag is described; the loaded nanodiscs were eluted from Ni-INDIGO beads by it just before SEC; also called ETR1_10xHis; ethylene receptor ETR1; source: E. …
stoichiometry N: 2
